Measurements from patent US20120208744A1, “ANTI-MICROBIAL AGENTS AND COMPOSITIONS AND METHODS OF PRODUCTION AND USE THEREOF” (The Penn State Research Foundation, priority 2011, published 2012).
Substitutions are numbered along the chain they refer to. Names and notes keep the numbering of the source.

Experiments:
Assay type in all cases: cell-based, Escherichia coli
TonB = assay: Proteinase K accessibility assay in spheroplasts; conditions: wild-type W3110 spheroplasts; pmf collapsed; 60 μM CCCP or 10 mM DNP
Excerpt: Proteinase K accessibility assays. For reversibility assays, spheroplasts were generated from wild-type cells (W3110) and treated with CCCP to collapse pmf. […] Samples were harvested and treated with proteinase K or left untreated. […] To re-establish pmf for the remaining sample, the proteinase K untreated, CCCP-treated spheroplasts were subsequently pelleted, washed, and resuspended in buffer without CCCP. These washed spheroplasts were divided in half. One sample was re-treated with CCCP, and one was treated with solvent only (DMSO). Both were then treated with proteinase K. As a control, whole cells were also treated with proteinase K or left untreated. All manipulations occurred at 4° C.
For standard assays, spheroplasts were prepared and treated with proteinase K as described previously (Larsen et al, 1999, Mol. Microbiol. 31, 1809-1824). The effect of protonophores was examined after treatment of spheroplasts with 60 μM carbonylcyanide-m-chlorophenylhydrazone (CCCP) or 10 mM DNP compared to an equal volume of solvent only, dimethyl sulfoxide (DMSO). After limited proteolysis, TCA precipitated samples were visualized on immunblots of 11% or 15% SDS polyacrylamide gels with TonB-specific monoclonal antibodies or ExbD-specific polyclonal antibodies, respectively. All manipulations occurred at 4° C.

E. coli = assay: Spot titer assay (sensitivity to TonB-dependent colicins and bacteriophage); conditions: three platings
Description: Activity assays: Spot titer assays were performed. Initial rates of [^55Fe]-ferrichrome uptake were determined.
Spot titers, which are capable of detecting very low levels of TonB activity, measure sensitivity to colicins and bacteriophage that enter and subsequently kill E. coli via the TonB system. […] Consistent with their insensitivity to phage and colicins, the other 13 deletion variants supported no iron transport.

[1] = test system: ferrichrome-mediated iron transport; assay: [55Fe]-ferrichrome uptake, ExbD cys substitutions, with or without CuoP treatment; conditions: for activity: initial rate of ferrichrome-mediated iron transport relative to wild-type plasmid-encoded ExbD: non-reducing conditions, substitution expressed to native ExbD levels, strain RA1045
Description: Since CuoP treatment catalyzed almost 100% dimer formation for some of the cys substitutions, attempts were made to determine activity of the dimeric form. […] The amount of CuoP was reduced 10-fold to 0.03 mM and cells had to be suspended in fully supplemented M9 medium as described in Experimental Procedures.
Activity assays. Initial rates of [^55Fe]-ferrichrome uptake were determined. For assays where cultures were treated with copper-(1,10-phenanthroline)3, harvested cells were pelleted, resuspended in 1×M9 supplemented as described above (no sodium propionate added), and treated with an equal volume 0.06 mM CuoP ([final] 0.03 mM) or 0.5 mM sodium phosphate buffer, pH 7.4 (buffer only) for 5 min, at 37° C. with aeration. Cells were pelleted, and the standard iron transport protocol was followed starting with resuspension in the assay medium.
In all assays the CuoP solution was removed and assays carried out in identical media, but the medium present during the 5 min CuoP treatment was important and differentially affected activity of a wild-type strain.

[2] = strain RA1017 (ΔExbBD, ΔTolQRA)
[3] = strain RA1017/pKP724 (ExbB, ExbDΔ132-141)
[4] = strain RA1017/pKP752 (ExbB, ExbDΔ102-111)
[5] = strain RA1017/pKP753 (ExbB, ExbDΔ92-101)
[6] = strain RA1017/pKP754 (ExbB, ExbDΔ82-91)
[7] = strain RA1017/pKP755 (ExbB, ExbDΔ72-81)
[8] = strain RA1017/pKP756 (ExbB, ExbDΔ62-71)
[9] = strain RA1017/pKP757 (ExbB, ExbDΔ52-61)
[10] = strain RA1017/pKP758 (ExbB, ExbDΔ32-41)
[11] = strain RA1017/pKP759 (ExbB, ExbDΔ22-31)
[12] = strain RA1017/pKP760 (ExbB, ExbDΔ12-21)
[13] = strain RA1017/pKP762 (ExbB, ExbDΔ42-51)
[14] = strain RA1017/pKP763 (ExbB, ExbDΔ112-121)
[15] = strain RA1017/pKP764 (ExbB, ExbDΔ122-131)
[16] = CuoP-treated (0.03 mM, 5 min, supplemented M9)
[17] = overexpressed ExbD cys substitution

Molecule: O=[N+]([O-])c1ccc(O)c([N+](=O)[O-])c1 [DNP]
- TonB conformation (proteinase K sensitivity) after protonophore treatment (TonB): Identical results

B1: Colicin Ia: TonB-dependent colicin; standard colicin preparation used in spot titers (protein, UniProt P06716 1-626, looked up)
Colicin-Ia: MSDPVRITNPGAESLGYDSDGHEIMAVDIYVNPPRVDVFHGTPPAWSSFGNKTIWGGNEWVDDSPTRSDIEKRDKEITAYKNTLSAQQKENENKRTEAGKRLSAAIAAREKDENTLKTLRAGNADAADITRQEFRLLQAELREYGFRTEIAGYDALRLHTESRMLFADADSLRISPREARSLIEQAEKRQKDAQNADKKAADMLAEYERRKGILDTRLSELEKNGGAALAVLDAQQARLLGQQTRNDRAISEARNKLSSVTESLNTARNALTRAEQQLTQQKNTPDGKTIVSPEKFPGRSSTNHSIVVSGDPRFAGTIKITTSAVIDNRANLNYLLSHSGLDYKRNILNDRNPVVTEDVEGDKKIYNAEVAEWDKLRQRLLDARNKITSAESAVNSARNNLSARTNEQKHANDALNALLKEKENIRNQLSGINQKIAEEKRKQDELKATKDAINFTTEFLKSVSEKYGAKAEQLAREMAGQAKGKKIRNVEEALKTYEKYRADINKKINAKDRAAIAAALESVKLSDISSNLNRFSRGLGYAGKFTSLADWITEFGKAVRTENWRPLFVKTETIIAGNAATALVALVFSILTGSALGIIGYGLLMAVTGALIDESLVEKANKFWGI
- Susceptibility: highest five-fold dilution of a standard colicin preparation that provided an evident zone of clearing on a cell lawn (E. coli; [2]): T, T, T
- Susceptibility: highest five-fold dilution of a standard colicin preparation that provided an evident zone of clearing on a cell lawn (E. coli; [3]): T, T, T
- Susceptibility: highest five-fold dilution of a standard colicin preparation that provided an evident zone of clearing on a cell lawn (E. coli; [4]): T, T, T
- Susceptibility: highest five-fold dilution of a standard colicin preparation that provided an evident zone of clearing on a cell lawn (E. coli; [5]): T, T, T
- Susceptibility: highest five-fold dilution of a standard colicin preparation that provided an evident zone of clearing on a cell lawn (E. coli; [6]): T, T, T
- Susceptibility: highest five-fold dilution of a standard colicin preparation that provided an evident zone of clearing on a cell lawn (E. coli; [7]): T, T, T
- Susceptibility: highest five-fold dilution of a standard colicin preparation that provided an evident zone of clearing on a cell lawn (E. coli; [8]): T, T, T
- Susceptibility: highest five-fold dilution of a standard colicin preparation that provided an evident zone of clearing on a cell lawn (E. coli; [9]): T, T, T
- Susceptibility: highest five-fold dilution of a standard colicin preparation that provided an evident zone of clearing on a cell lawn (E. coli; [10]): T, T, T
- Susceptibility: highest five-fold dilution of a standard colicin preparation that provided an evident zone of clearing on a cell lawn (E. coli; [11]): T, T, T
- Susceptibility: highest five-fold dilution of a standard colicin preparation that provided an evident zone of clearing on a cell lawn (E. coli; [12]): T, T, T
- Susceptibility: highest five-fold dilution of a standard colicin preparation that provided an evident zone of clearing on a cell lawn (E. coli; [13]): T, T, T
- Susceptibility: highest five-fold dilution of a standard colicin preparation that provided an evident zone of clearing on a cell lawn (E. coli; [14]): T, T, T
- Susceptibility: highest five-fold dilution of a standard colicin preparation that provided an evident zone of clearing on a cell lawn (E. coli; [15]): T, T, T

B2: Colicin M: TonB-dependent colicin; standard colicin preparation used in spot titers (protein, UniProt P05820 1-271, looked up)
Colicin-M: METLTVHAPSPSTNLPSYGNGAFSLSAPHVPGAGPLLVQVVYSFFQSPNMCLQALTQLEDYIKKHGASNPLTLQIISTNIGYFCNADRNLVLHPGISVYDAYHFAKPAPSQYDYRSMNMKQMSGNVTTPIVALAHYLWGNGAERSVNIANIGLKISPMKINQIKDIIKSGVVGTFPVSTKFTHATGDYNVITGAYLGNITLKTEGTLTISANGSWTYNGVVRSYDDKYDFNASTHRGIIGESLTRLGAMFSGKEYQILLPGEIHIKESGKR
- Susceptibility: highest five-fold dilution of a standard colicin preparation that provided an evident zone of clearing on a cell lawn (E. coli; [2]): T, T, T
- Susceptibility: highest five-fold dilution of a standard colicin preparation that provided an evident zone of clearing on a cell lawn (E. coli; [3]): T, T, T
- Susceptibility: highest five-fold dilution of a standard colicin preparation that provided an evident zone of clearing on a cell lawn (E. coli; [4]): T, T, T
- Susceptibility: highest five-fold dilution of a standard colicin preparation that provided an evident zone of clearing on a cell lawn (E. coli; [5]): T, T, T
- Susceptibility: highest five-fold dilution of a standard colicin preparation that provided an evident zone of clearing on a cell lawn (E. coli; [6]): T, T, T
- Susceptibility: highest five-fold dilution of a standard colicin preparation that provided an evident zone of clearing on a cell lawn (E. coli; [7]): T, T, T
- Susceptibility: highest five-fold dilution of a standard colicin preparation that provided an evident zone of clearing on a cell lawn (E. coli; [8]): T, T, T
- Susceptibility: highest five-fold dilution of a standard colicin preparation that provided an evident zone of clearing on a cell lawn (E. coli; [9]): T, T, T
- Susceptibility: highest five-fold dilution of a standard colicin preparation that provided an evident zone of clearing on a cell lawn (E. coli; [10]): T, T, T
- Susceptibility: highest five-fold dilution of a standard colicin preparation that provided an evident zone of clearing on a cell lawn (E. coli; [11]): T, T, T
- Susceptibility: highest five-fold dilution of a standard colicin preparation that provided an evident zone of clearing on a cell lawn (E. coli; [12]): T, T, T
- Susceptibility: highest five-fold dilution of a standard colicin preparation that provided an evident zone of clearing on a cell lawn (E. coli; [13]): T, T, T
- Susceptibility: highest five-fold dilution of a standard colicin preparation that provided an evident zone of clearing on a cell lawn (E. coli; [14]): T, T, T
- Susceptibility: highest five-fold dilution of a standard colicin preparation that provided an evident zone of clearing on a cell lawn (E. coli; [15]): T, T, T

B3: ExbD I102C: ExbD cysteine substitution I102C (pKP1010) (protein)
chain: MAMHLNENLDDNGEMHDINVTPFIDVMLVLLIIFMVAAPLAIVDVKVNLPASTSTPQPRPEKPVYLSVKADNSMFIGNDPVTDETMITALNALTEGKKDITCFFRADKTVDYETLMKVMDTLHQAGYLKIGLVGEETAKAK
- activity: initial rate of ferrichrome-mediated iron transport relative to wild-type plasmid-encoded ExbD [1]: 80%

B4: ExbD K108C: ExbD cysteine substitution K108C (pKP1016) (protein)
chain: B3 chain with C102I, K108C
- activity: iron transport relative to wild-type ExbD [1, 16]: at least 70%
- activity: initial rate of ferrichrome-mediated iron transport relative to wild-type plasmid-encoded ExbD [1]: ~110%
- activity: iron transport relative to wild-type ExbD [1, 17]: 110%

B5: ExbD M116C: ExbD cysteine substitution M116C (pKP1024) (protein)
chain: B3 chain with C102I, M116C
- activity: iron transport relative to wild-type ExbD [1, 16]: 20%
- activity: iron transport relative to wild-type ExbD ([1]; buffer only treated samples): about 90%

B6: ExbD Y112C: ExbD cysteine substitution Y112C (pKP1020) (protein)
chain: B3 chain with C102I, Y112C
- activity: iron transport relative to wild-type ExbD [1, 16]: 5%
- activity: iron transport relative to wild-type ExbD ([1]; buffer only treated samples): about 90%
- activity: iron transport relative to wild-type ExbD [1, 17]: 90%

B7: ExbD G96C: ExbD cysteine substitution G96C (pKP1004) (protein)
chain: B3 chain with G96C, C102I
- activity: initial rate of ferrichrome-mediated iron transport relative to wild-type plasmid-encoded ExbD [1]: 85%
